T1: recombinant mouse FAP (Mus musculus, UniProt P97321)
T1 sequence (P97321 1-761): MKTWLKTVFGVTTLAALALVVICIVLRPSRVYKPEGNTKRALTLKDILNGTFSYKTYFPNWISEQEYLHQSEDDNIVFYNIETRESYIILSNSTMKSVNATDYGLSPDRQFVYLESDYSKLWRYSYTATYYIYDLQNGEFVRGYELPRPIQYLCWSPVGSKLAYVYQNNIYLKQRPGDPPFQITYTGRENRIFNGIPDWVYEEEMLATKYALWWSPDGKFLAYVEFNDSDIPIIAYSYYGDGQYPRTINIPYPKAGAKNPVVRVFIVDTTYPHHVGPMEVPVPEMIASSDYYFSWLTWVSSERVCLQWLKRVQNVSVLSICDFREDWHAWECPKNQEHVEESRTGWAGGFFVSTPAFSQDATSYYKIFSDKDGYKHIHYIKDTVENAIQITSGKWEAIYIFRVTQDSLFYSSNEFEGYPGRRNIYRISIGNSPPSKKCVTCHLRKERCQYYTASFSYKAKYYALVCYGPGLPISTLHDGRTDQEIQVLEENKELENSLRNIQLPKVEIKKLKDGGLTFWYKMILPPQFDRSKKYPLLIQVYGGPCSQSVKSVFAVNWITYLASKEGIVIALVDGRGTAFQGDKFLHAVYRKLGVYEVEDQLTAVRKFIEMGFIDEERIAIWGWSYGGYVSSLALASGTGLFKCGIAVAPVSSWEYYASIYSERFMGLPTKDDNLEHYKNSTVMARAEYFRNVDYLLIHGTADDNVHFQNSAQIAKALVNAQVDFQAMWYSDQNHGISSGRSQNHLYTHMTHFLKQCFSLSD

B1: T1.02m: K&H bispecific: anti-mu FAP/mu IL-12 mut1, mu IgG2a DANG (seq18, seq19, seq21) (antibody)
heavy: QVQLQQSGAELARPGASVNLSCKASGYTFTNNGINWLKQRTGQGLEWIGEIYPRSTNTLYNEKFKGKATLTADRSSNTAYMELRSLTSEDSAVYFCARTLTAPFAFWGQGTLVTVSAAKTTAPSVYPLAPVCGDTTGSSVTLGCLVKGYFPEPVTLTWNSGSLSSGVHTFPAVLQSDLYTLSSSVTVTSSTWPSQSITCNVAHPASSTKVDKKIEPRGPTIKPCPPCKCPAPNLLGGPSVFIFPPKIKDVLMISLSPIVTCVVVAVSEDDPDVQISWFVNNVEVHTAQTQTHREDYGSTLRVVSALPIQHQDWMSGKEFKCKVNNKDLPAPIERTISKPKGSVRAPQVYVLPPPEEEMTKKQVTLWCMVTDFMPEDIYVEWTNNGKTELNYKNTEPVLDSDGSYFMYSKLRVEKKNWVERNSYSCSVVHEGLHNHHTTKSFSRTPGK
light: QIVLTQSPAIMSASPGEKVTMTCSASSGVNFMHWYQQKSGTSPKRWIFDTSKLASGVPARFSGSGSGTSYSLTISSMEAEDAATYYCQQWSFNPPTFGGGTKLEIKRADAAPTVSIFPPSSEQLTSGGASVVCFLNNFYPKDINVKWKIDGSERQNGVLNSWTDQDSKDSTYSMSSTLTLTKDEYERHNSYTCEATHKTSTSPIVKSFNRNEC
chain: MWELEKDVYVVEVDWTPDAPGETVNLTCDTPEEDDITWTSDQRHGVIGSGKTLTITVKEFLDAGQYTCHKGGETLSHSHLLLHKKENGIWSTEILKNFKNKTFLKCEAPNYSGRFTCSWLVQRNMDLKFNIKSSSSSPDSRAVTCGMASLSAEKVTLDQRDYEKYSVSCQEDVTCPTAEETLPIELALEARQQNKYENYSTSFFIRDIIKPDPPKNLQMKPLKNSQVEVSWEYPDSWSTPHSYFSLKFFVRIQRAKEKMAETEEGCNQKGAFLVEKTSTEVQCKGGNVCVQAQDRYYNSSCSKWACVPCRVRSGGGGSGGGGSGGGGSRVIPVSGPARCLSQSRNLLKTTDDMVKTAREKLKHYSCTAEDIDHEDITRDQTSTLKTCLPLELHKNESCLATRETSSTTRGSCLPPQKTSLMMTLCLGSIYEDLKMYQTEFQAINAALQNHNHQQIILDKGMLVAIDELMQSLNHNGETLRQKPPVGEADPYRVKMKLCILLHAFSTRVVTINRVMGYLSSAGGGGSGGGGSEPRGPTIKPCPPCKCPAPNLLGGPSVFIFPPKIKDVLMISLSPIVTCVVVAVSEDDPDVQISWFVNNVEVHTAQTQTHREDYGSTLRVVSALPIQHQDWMSGKEFKCKVNNKDLPAPIERTISKPKGSVRAPQVYVLPPPEEEMTKKQVTLSCAVTDFMPEDIYVEWTNNGKTELNYKNTEPVLDSDGSYFMVSKLRVEKKNWVERNSYSCSVVHEGLHNHHTTKSFSRTPGK
B2: T1.12m: K&H: anti-mu FAP/null, mu IgG2a DANG (seq18, seq19, seq29); used as control (antibody)
heavy: B1 heavy
light: B1 light
chain: EPRGPTIKPCPPCKCPAPNLLGGPSVFIFPPKIKDVLMISLSPIVTCVVVAVSEDDPDVQISWFVNNVEVHTAQTQTHREDYGSTLRVVSALPIQHQDWMSGKEFKCKVNNKDLPAPIERTISKPKGSVRAPQVYVLPPPEEEMTKKQVTLSCAVTDFMPEDIYVEWTNNGKTELNYKNTEPVLDSDGSYFMVSKLRVEKKNWVERNSYSCSVVHEGLHNHHTTKSFSRTPGK

Experiments:
[1] = tested on: FAP-overexpressing mouse colorectal cancer CT26; test: Tumor growth inhibition by IL-12 mutation, FAP-overexpressing CT26, single i.v. dose; type: in vivo, BALB/c mice; details: 10 μg i.v. once, 15 days after administration, control PBS, FIG. 28
Procedure: In order to evaluate the change in IL-12 activity according to the presence and extent of amino acid mutation, FAP-overexpressing mouse colorectal cancer CT26 was prepared by resuspending in PBS at a concentration of 5×10^5 cells/100 μl, and the tumor growth inhibitory ability was evaluated in a tumor animal model prepared by transplantation of the cells into 5-week-old female BALB/c mice.
Specifically, when the size of the tumor in the model reached 100 mm^3, the mice were randomly divided into groups. 100 μl of phosphate buffered saline (PBS) was administered once via tail vein injection of the control, and each of T1.01m, T1.02m and T1.03m was intravenously administered once at a dose of 10 μg.

[2] = tested on: HEK-Blue IL-12 cells; test: Signaling ability in IL-12 recognizing cells (STAT4 inducible SEAP reporter); type: cell-based, human; details: serial dilution from 4 nM, 24 hours, FIG. 18
Procedure: The HEK-Blue IL-12 cell line transformed with the IL-12 receptor gene and the STAT4 inducible SEAP reporter gene into HEK293 cells, which are human embryonic kidney fibroblasts, was obtained from Invivogen (San Diego, USA). The HEK-Blue IL-12 cells were maintained in DMEM (GIBCO) containing 10% FBS (GIBCO), 100 μg/ml Normocin and 1×HEK-Blue selection.
Specifically, the HEK-Blue IL-12 cell line, which is an IL-12 recognizing cell, was diluted to 2.8×10^5 cells/ml and dispensed at 180 μl/well. Recombinant human IL-12, T1.01m, T1.02m, T1.03m and T1.12m were suspended at 4 nM and diluted by serial dilution. HEK-Blue IL-12 cells were treated with the diluted recombinant human IL-12, T1.01m, T1.02m, T1.03m and T1.12m. After 24 hours of treatment, the cell supernatant was collected and mixed with QUANTI-Blue Solution (Invivogen) in a 96-well plate. The reporter expression level was measured at 620 nm using a spectrophotometer (Thermo Fisher).

[3] = tested on: FAP-overexpressing CT26 cells; test: Tumor growth inhibition, FAP-overexpressing CT26 model, repeated i.p. dosing; type: in vivo, BALB/c mice; details: 18 days after administration, control 50 μg T1.24m
Procedure: In order to prepare an mouse FAP-expressing tumor animal model, FAP overexpression was induced in CT26, a mouse colorectal cancer cell line. Specifically, the FAP-overexpressing CT26 cells in culture were resuspended in Hanks' Balanced salt solution (HBSS, Gibco), and then each 100 μl of 1×10^6 tumor cells per each mouse was transplanted into the subcutaneous region of the left dorsal side of 6-week-old BALB/c mice using a 1 cc syringe (25G) to obtain a mouse FAP-expressing colorectal cancer animal model. The tumor size was measured using a digital vernier caliper by measuring the short axis and long axis of the tumor, and the tumor size was measured twice a week using the calculation formula of (short axis, mm) 2×(long axis, mm)×0.5.
(§1) Next, for drug efficacy evaluation, when the size of the tumor reached 100 mm^3, the mice were randomly divided into groups. Each experimental group consisted of 8 animals, and as a control, each 100 μl of 50 μg of T1.24m was intraperitoneally administered four times at an interval of 3 days. In the test group, each 100 μl of 10 μg and 100 μg of T1.01m, and 2 μg, 10 μg and 100 μg of T1.02m, respectively, were intraperitoneally administered four times at an interval of 3 days to evaluate the tumor growth inhibitory ability.

[4] = tested on: CT26 colorectal cancer with mouse FAP overexpressing NIH-3T3 cells; test: Tumor growth inhibition, CT26 co-injected with mouse FAP overexpressing NIH-3T3; type: in vivo, BALB/c mice; details: for tumor growth inhibitory ability compared to control: 14th day, control 50 μg T1.24m
Procedure: Specifically, the mouse FAP overexpressing NIH-3T3 cells and the CT26 cells in culture were resuspended in Hanks' Balanced salt solution (HBSS, Gibco) at a concentration of 1×10^6 cells/50 μl, respectively, and the cells were mixed in a 1:1 ratio, and then 100 μl per each mouse was transplanted into the subcutaneous region of the right flank of 6-week-old BALB/c mice using a 1 cc syringe (25G) to obtain an FAP-expressing fibroblast co-injection animal model. The tumor size was measured using a digital vernier caliper by measuring the short axis and long axis of the tumor, and the tumor size was measured twice a week using the calculation formula of (short axis, mm) 2×(long axis, mm)×0.5.
as §1, with “of 10” for “of 8”, “administered three” for “administered four”, “and 50 μg of T1.02m and 50” for “and 100”, “T1.01m,” for “T1.01m, and 2 μg, 10 μg and 100 μg of T1.02m,”

[5] = target: T1, recombinant mouse FAP; test: Surface plasmon resonance binding to recombinant mouse FAP; details: SPR, 2 μg/ml protein, FIGS. 13 and 14
Procedure: The surface of the CM5 chip was activated with a 1:1 mixture of […] (N-hydroxysuccinimide) and […] (1-Ethyl-3-(3-dimethylaminopropyl) carbodiimide), and 25 μg/ml of anti-mouse IgG (Fc) antibody was immobilized for 400 seconds at a rate of 10 μl/min. The remaining active ester groups were blocked with 1 M ethanolamine. T1.01m, T1.02m and T1.03m were diluted to 2 μg/ml and reacted on the CM5 chip immobilized with the anti-mouse IgG (Fc) antibody. The recombinant mouse FAP was diluted to 200 nM in 1×HBS-EP+buffer solution and diluted by serial dilution. The diluted recombinant mouse FAP was reacted at a rate of 30 μl/min. The association and dissociation times were 180 seconds and 400 seconds, respectively. After the dissociation, stabilization was performed for 60 seconds, and then a regeneration was performed for 30 seconds with a 10 mM glycine pH 1.5 solution at a rate of 30 μl/min.

Row | Molecule | tumor growth inhibitory ability compared to the control [1] | IL-12 recognition / STAT4 reporter gene expression (620 nm absorbance) [2] | tumor growth inhibitory ability compared to control ([3]; 2 μg i.p. four times at an interval of 3 days) | tumor growth inhibitory ability compared to control ([3]; 10 μg i.p. four times at an interval of 3 days) | tumor growth inhibitory ability compared to control ([3]; 100 μg i.p. four times at an interval of 3 days) | tumor growth inhibitory ability compared to control ([4]; 10 μg i.p. three times at an interval of 3 days) | tumor growth inhibitory ability compared to control ([4]; 50 μg i.p. three times at an interval of 3 days) | complete response ([4]; 24th day after administration, FIG. 24) | Binding to recombinant mouse FAP [5]
1 | B1 | excellent tumor growth inhibitory ability | IL-12 was recognized, and STAT4 expressed a reporter gene by inducing phosphorylation | 80.1% | 90.5% | 89.8% | 93.2% | 92.7% | subjects in complete response were observed | may bind to recombinant mouse FAP to specifically target FAP
2 | B2 |  | did not recognize IL-12 |  |  |  |  |  |  | 
